Measurements published in PMC3568928 (Journal of molecular biology, 2011).
Values joined by “and” are separate entries in the source; they are usually repeats but may differ in a detail not shown here. Equal entries are not always repeated.

B1: htt^NTQ10K2 (peptide)
peptide: MATLEKLMKAFESLKSFQQQQQQQQQQKK
B2: htt^NTQ37P10K2 (peptide)
peptide: MATLEKLMKAFESLKSWQQQQQQQQQQQQQQQQQQQQQQQQQQQQQQQQQQQQQPPPPPPPPPPKK

How the values were obtained:
AUC = biological target: the molecule itself; assay: AUC
htt^NTQ15K2 = biological target: T1, htt^NTQ15K2 (Phe→Trp replacement at position 17 (stands in the printed letters)); assay: seeded elongation, HPLC sedimentation assay
T1 peptide: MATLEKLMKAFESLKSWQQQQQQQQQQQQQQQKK

htt^NTQ10K2 = biological target: B1; assay: seeded elongation, HPLC sedimentation assay
htt^NTQ25K2 = biological target: T2, htt^NTQ25K2 (Phe→Trp replacement at position 17 (stands in the printed letters)); assay: seeded elongation, HPLC sedimentation assay
T2 peptide: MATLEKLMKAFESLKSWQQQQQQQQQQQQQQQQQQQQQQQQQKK

Row | Binder | stoichiometry N (AUC) | pseudo-first-order rate constant of seeded elongation (htt^NTQ15K2) [h⁻¹] | pseudo-first-order rate constant of seeded elongation (htt^NTQ10K2) [h⁻¹] | pseudo-first-order rate constant of seeded elongation (htt^NTQ25K2) [h⁻¹]
1 | B1 | ~4 and ~8 and ~12 | – | – | –
2 | B2 | – | 0.236 | 0.249 | 0.316
